Data taken from the DeepSol protein solubility set.

Assay: soluble on expression in E. coli; label from the status in PepcDB or PDB records

For “MNFRTGQPSDAAALAAISIEVWLGTYMRKGVSAFFAEYALNEFTSTKMASLLKDPNEHVIVSENEGGIDAFIRLGQGRAAPVSGCSTLEIATLYVQPRHHRRGLGRALLEQGLAYARQASAPSVWLTTNSENAPAIAFYLEQGFEKVGTTHFNIGDQAYLNDVFRRIVSM”, which “soluble on expression in E. coli” value is on record?
The value was “soluble”.

With “RNFKMIDNLSKVYGVELGYASRIKLLRAVFVNMAAAGASELAIDAGMDLMSMDLAGKVSARAGQGLGVGILTARLGLKAMALLRPLPWYPDRQVKLGTIRKAVVAKVASITMKP” as the sequence, how does the “soluble on expression in E. coli” value read?
The value was “not soluble”.

Which “soluble on expression in E. coli” value does the source give for “MGSDKIHHHHHHMDVLRCENLKKRFGRRYVVNGVNLEFHRGEIVGLLGPNGAGKTTIFNMILGVVVPTSGKIIFRDVDITKFPVYRRARLGITYLQQETSIFGGLTVRENIDLVLRFHEKDKEKRERKIEELLHEFHLKHLENQPASFLSGGEKRKLELARMMCLNPAFILLDEPFSGIDPKTVKEIQKMTLELKQKNFGIVITDHNVDELVEIADRIYVIYKGEILAEGSPERILEDETVREVYLGT” here?
Its value is “not soluble”.

For “MSLTELEFVTEHRRYLHKHPELSLHEYETTKYIAHFLDDLGVPYERPLDTGVIAYLSGNSTHTIAYRADIDALPIYEENNVSYRSEVDHVMHACGHDGHTTALMLFVKRCKNLADKGELPQNIVFIFQPAEETGGGANRLIRAGAFEKYPIEAVFGIHVMPFENEGRVVIRDEEITASATEYRFYLHGLSSHVADKEQGHSCGEALQHVLTQVGQIQQYHLNGLKRNIVHMGHFEAGEAINTVPSNGYLEGTIRTYDVKDLEIVKQQMTKISESVKLLFNVECEVKFEEGYPPTFNDPQLRKHVENGLVNAEFEVIDKPTPYLFGEDFSFYSQIAPSYFVFVGVRDEAKGYVTGLHTSHLNFNESILIRIADYYEQILKSYSEVQSEGHHHHHH”, which “soluble on expression in E. coli” value is on record?
Its value is “soluble”.

With “MGPVPEFSVIIPARNEAAYLPGTLRALERQTLAPAEVIVVDNASRDQTAQIARSWGAQVLSCPEGGVARARQLGLDTARSSWVATTDADSLPAPGWLAAYAQAALLAGGYPEVEAYEDVILGQNLARLGEIGYVPRALVETSARRLDRGVGPFLIQHLRNLTGHTRGLEHHHHHH” as the sequence, how does the “soluble on expression in E. coli” value read?
The value was “not soluble”.

For “MFKRETKDFINIDPLQTGGKLTEEARQALLEWGDGYSVCDFCTTGRLDEIKTPPIHDFIHNQLPKFLGCDVARVTNGAREAKFAVMHSLAKKDAWVVMDENCHYSSYVAAERAGLNIALVPKTDYPDYAITPENFAQTIEETKKRGEVVLALITYPDGNYGNLPDVKKIAKVCSEYDVPLLVNGAYAIGRMPVSLKEIGADFIVGSGHKSMAASGPIGVMGMKEEWAEIVLRRSEKYKNKEVELLGCTARGATIITLMASFPHVRERIKRWDEEVEKARRFAAEMEKLGIKQLGDNPHNHDLMFFHAEVLYEISKKAKGGRFFLYRELKSRKIHGIKPGLTRYFKLSTYGLSDEEVDYVLNAFKEIIEKYS”, which “soluble on expression in E. coli” value is on record?
Its value is “soluble”.

For “MGSDKIHHHHHHMDVDLNELAGQFASGFLTVDGVYRTTLEAGRVLGHTRAYPTPKSGFLFALKGEASFVFNGTAYHLSPGKVVHGGKNMELIVKVGPAAFEYCLIHYTLHTRSNHPNDTDSHFLLEPGENLAITEKLDLLHRIKSTPGNFPEIQAKALFYTIFHDMLICARNRLNRESQLVIEQVVEYIHHHYMEPMTVKKLADMSGMGVKPFSYLFKKYIGMFPIDYLIQYRLKRAKNLLVSSNSSIADIAESIGYLDALYFSRLFKKHIGCSPTAFRAQMGNCPSDDQ”, which “soluble on expression in E. coli” value is on record?
The value was “not soluble”.

For “MSLGLNILKTLRSHRVSEGVSNSDTHYELTSALIKSLRGSDIDASIYYLARLIQGGEEPAFLARRMVIFASEDIGNANPNALNLATNVMLAVSKIGYPEARIILAQCAVYLASSPKSNSSYKAINDAIEFVENRPALPVPKYLINTDKAKSEYLYPHDFGGWVEQKYMSTQVKFYKSNAIGFEKTLDEWITKLKESYNEKEGHHHHHH”, which “soluble on expression in E. coli” value is on record?
Its value is “soluble”.

For “MGHHHHHHSHMAALASSLIRQKREVREPGGSRPVSAQRRVCPRGTKSLCQKQLLILLSKVRLCGGRPARPDRGPEPQLKGIVTKLFCRQGFYLQANPDGSIQGTPEDTSSFTHFNLIPVGLRVVTIQSAKLGHYMAMNAEGLLYSSPHFTAECRFKECVFENYYVLYASALYRQRRSGRAWYLGLDKEGQVMKGNRVKKTKAAAHFLPKLLEVAMYQEPSLHSVPEASPSSPPAP”, which “soluble on expression in E. coli” value is on record?
Its value is “soluble”.

With “MGSDKIHHHHHHVLADSTGHGLSAAMPIMRVASTFRAMVSKGFSLATLIYELNSKVHRENPDDRFVACIVLEVDFYRKKIHIWNGGMPPVYIKNHLETETVSDHYPVKNIIKFKSTNMALGILPSQTFVADIATVDLPVVGHACLFSDGLIEQYTNENKPFGIETLNSLFIQYASELIPYLTENFKKVFDGKPITDDITVCTLDFERLNEWHQQNNICLARSNMDGEFDWEVKLAGPMLLSAEYLNSLNQFLGMFGFATSFCQRVFTVVAELFSNAIDHGVLKLDSRLKSDPDGFELYHSIRDSSSARLTMNDWVKVSLVWCSITNELHICVADSGQGFKGYKNTVVDIPQLSGRGLSLVKTLSKTYELVSPGNITKVIME” as the sequence, how does the “soluble on expression in E. coli” value read?
The value was “not soluble”.

Which “soluble on expression in E. coli” value does the source give for “MSLATLAELYEFLETKQDDSHLDSRFSYDAFLPVEQPKARLEILTWWKIERLIEDENCNFDKNFIVSYFDERVKATNNQLLKYRYNYFISLLTNDNRYAKQSIDALIAVINTLLPKDKEDYPHVAEKAIEVLMSLIKRVKYKIPEATDLIWGVLESDYGYRTKMVCIRLAKEKGFFPSRDAKKIVCLCKDLLSLVKDSWRENCCELGLFYSSKIQGEAKPYMNFFYEALGDMEMGQLVDPATAPNNIAIPWMNEDHSQKAMAFYQKAGLTQKRNRAELAFRENKKKMVMLHFKIEKKTDKKIVEYFGNLEKELLEGKLSWLLENLSCPVRFLFPSYEQIRLRMSASKSTVEKLGFENKIMDINGNSKDAGKDFDLRQKYGIWLMNIVRNTVINMILTAVNIKQLTYSKLRKWFLKNTCFGIQLEYTRSGQVVTTTWFSQIDYGVEALIKQYNRFLQGKPTDWRLPVDILSIRFEGILRDMVGDYGGCVTKVGRDNSISQALLDDLLREPCLLQIFRKEDIEFFEYVFTAKGYNIRNYVAHAFYIPQDYGMIEATLVFLCILRLTMFSPKSKTITANEGHHHHHH” here?
The value was “not soluble”.

Which “soluble on expression in E. coli” value does the source give for “SNAMSARKLFYLGPQGTFTHQAAVNAAQELARFEPQGFDLMPMDDVPQILDAAQHGDGWGIVAWENNVEGYVVPNLDALIDAKDLVGFARVGVNVEFDAYVAQGADPAEARIATAHPHGLAQCKRFIAEHRLSTQPATSNAAACRDLIPGEIAFGPAICGELYDITRIGTAIQDYQGAATDFLVLSPRAEVARLLAKPRAEANVEYESVLTLIPLVTGPGVLANLLDVFRDAGLNMTSFISRPIKGRTGTYSFIVTLDAAPWEERFRDALVEIAEHGDWAKTLAVYPRREHPNPPVTSWMLPQGGVRLDDSHLPDDWQNDETVRRELMW” here?
The value was “soluble”.

With “MSLTREAYHRLTPLPHPGGRLFIKPGARGYRDPVHDLLQKTVEPFGERALDLNPGVGWGSLPLEGRMAVERLETSRAAFRCLTASGLQARLALPWEAAAGAYDLVVLALPAGRGTAYVQASLVAAARALRMGGRLYLAGDKNKGFERYFKEARALLGYGVVVRREGPYRVALLEKEKEAPPLPSLWRAFSARILGAEYTFHHLPGVFSAGKVDPASLLLLEALQERLGPEGVRGRQVLDLGAGYGALTLPLARMGAEVVGVEDDLASVLSLQKGLEANALKAQALHSDVDEALTEEARFDIIVTNPPFHVGGAVILDVAQAFVNVAAARLRPGGVFFLVSNPFLKYEPLLEEKFGAFQTLKVAEYKVLFAEKRGRHHHHHH” as the sequence, how does the “soluble on expression in E. coli” value read?
The value was “soluble”.

Which “soluble on expression in E. coli” value does the source give for “MKHTFKLSLLCSAILLAGCGDNTSSSGTTDKVTFESEVQALLDRGTSISFTIQGANADVPAPSYLLMDTSDGTLGLPTNGDDALTNPRASMNTMDGWSTSMPIVLNFNGDGFAPGMLASGVKVIKINQRLTEWDGKTNPIAKVLVQNQDYVVQANGKSLYVQFADSLDESSEYIFAVTQDVTDVNGEPIGTSSSYAVAKSKQVKYESGDLASVQAVTEAVEGIFGLAQVNPADIVYSSWFSTQSVGDTLAAVKGVTATGFATGANTLNTIYKNDTNENAVDLATAYTMVLGETQDFMTALDSDSDFNKYVSDLDAAKTAIKGLYVQSGASVNVTQGQVRLPHYLEKGANWNMQPMVSAMPSLAKLNAALTDPAEQANMVQQLSSGVFASSPVDVSKLATDPTEQLKLVGSKLYLNDGTQLDSERVITRYSPVPEVKSLENVEFLLFTPQNGVAKDVVIYQHGITSAKENAYAFAFNMVQTGVAVIAIDLPIHGTRSLDEQRSANANVLAYLNLSNLAVARDNLRQSVLDVLGLRASLVVSAQGGLLAGGPLQGFNPMTGSQVK” here?
The value was “not soluble”.

With “MGSDKIHHHHHHAPQPTVAVARGKDYARTTRSALALLGGMKRFVKPGDVVVLKPNMGWDRTPAQAANTHPLVVRALAEEALAAGAKRVKVFDRTCNDERRCYVQSGISDALKGMKGVELKFIENERFRRVPIKGAVLPAWELYDEALSADVFINVPVAKHHGLSRLTLGLKNVMGVMGGNRGSIHRHLDDALADINSVLKSHLTVIDATRILTDHGPQGGSPADVKVMDTVIASTDIVAADAYATTLFGLKPEDIPVTVAAHKRGLGEMNLKRVRIVTA” as the sequence, how does the “soluble on expression in E. coli” value read?
The value was “not soluble”.

Which “soluble on expression in E. coli” value does the source give for “MKPDIYALLERALLSGDPDEKGRLTDEAFAAVQNMDGAETNTPPLDFPRAGRPDKPVLVAPSQLTPRKMNTTEGYAAMLHAIAHIEFNAVNLALDAAYRFRTLPFQFVRDWVKVAKEEVYHFRLMRERLRAFGFDYGDFEAHNHLWDMAYKTAYDPLLRMALVPRVLEARGLDVTPGIRAKVAQRGDSETCGVLDIIYRDEVGHVAIGNRWYQHLCRERGLEPIALFRSLIARYDMFIFRGYVNIEAREKAGFSRFELDMLEDFEQSLKQNKNTVMGHHHHHHSH” here?
Its value is “soluble”.

For “MGHHHHHHSHVLLFVYGEPVTRPHSGPAVYFWRHRKQADLDLARGDFAQAAQQLWLALRALGRPLPTSHLDLACSLLWNLIRHLLQRLWVGRWLAGRAGGLQQDCALRVDASASARDAALVYHKLHQLHTMGKHTGGHLTATNLALSALNLAECAGDAVSVATLAEIYVAAALRVKTSLPRALHFLTRFFLSSARQACLAQSGSVPPAMQWLCHPVGHRFFVDGDWSVLSTPWESLYSLAGNPVDPLAQVTQLFREHLLERALNCVTQPNPSPGSADGDKEFSDALGYLQLLNSCSDAAGAPAYSFSISSSMATTTGVDPVAKWWASLTAVVIHWLRRDEEAAERLCPLVEHLPRVLQESERPLPRAALHSFKAARALLGCAKAESGPASLTICEKASGYLQDSLATTPASSSIDKAVQLFLCDLLLVVRTSLWRQQQPPAP”, which “soluble on expression in E. coli” value is on record?
The value was “not soluble”.

For “MQLSKALSLRRVLNSGFHPFQVIPKPDVWMKRERLNRFTAWQYASERSTVKGAYRKEDKIFAYLNMQRQDERNLEKFHAEERVRTALEEHDMEYSKFKSILSQSHILLDNICLSQLAIYEPRSFRSLVAFAKELARQEGMNVIPDDAEFSYDVHVDNKSVLRKPLPRAVEYTRGASENHTNKPRKLREDEY”, which “soluble on expression in E. coli” value is on record?
The value was “not soluble”.

Which “soluble on expression in E. coli” value does the source give for “MSEPISPRTPQQALAALLARYAPKHLLLVGASRLPAVEAFIHNHPQCQLAHSPAAALPAELAGQRFDLALFVDCLEHLPQRTGLQLLAGVRNLNASRVAVLVDLEASDWQETDFFALAMQNSERFQREGQTLTLYTYDLYEYKQVPDWLNAKFWANPENFGKYWW” here?
Its value is “not soluble”.

With “MGSDKIHHHHHHMCRILGYLGTPVLLEDLLYAPDSSLLNQTIGAQMLQMLNLAGFGMAAWDPASHDPHLPFRYRTTQVALFDRNLKALAGKLRPGALLAHIRGVPYNSTVQINEQNCHPFRFEGVPLAMAHNGDLAGFREMRFDLAPHVRPEFARQIQGSTDSEWIYALAVSALDDPAGVNEPDAILAAIRRALSILRDARARHGITRSSSTNLMFCDGVNLVAVRFTFDFGRFDAGKLQGTTEYLSMWYTFGRDYGLHDGEWKLTGGAASADSVMVASEPLTRDFATWIEVPEYSALIVRHEGARRRAEIHALEV” as the sequence, how does the “soluble on expression in E. coli” value read?
Its value is “not soluble”.
